Test results reported in paper PMC6128213.

Biological target: human fibronectin (human) (UniProt P02751)
Test: AFM single molecule force spectroscopy

pilus-1 adhesin RrgA from Streptococcus pneumoniae (natural protein)
most probable rupture force fMP: 51.6 pN
